Results taken from PMC12420816 (Nature Communications, 2025).

Target: SARS-CoV-2 nsp16 with uncleaved His6-tag (SARS-CoV-2) (UniProt P0DTD1)
Assay: native MS

Substance: SARS-CoV-2 nsp7-11 polyprotein, tag-free with native (authentic) termini (domain or fragment)
- percent of signal as complex: 2%
